PMC3773400, “Intracellular Secretory Leukoprotease Inhibitor Modulates Inositol 1,4,5-Triphosphate Generation and Exerts an Anti-Inflammatory Effect on Neutrophils of Individuals with Cystic Fibrosis and Chronic Obstructive Pulmonary Disease” (BioMed Research International, 2013)

What was measured:
calpain 2 = calpain 2 (UniProt P17655 20-700); experiment: enzyme inhibition kinetics (Calpain-Glo protease assay); cleavage of the calpain substrate Suc-LLVY-aminoluciferin, luminescence; calpastatin 0-80 nM, rhSLPI 0-640 nM; Ki by global curve fit in GraphPad Prism 4.03; conditions: both partners purified
calpain 1 = calpain 1 (UniProt P07384 1-714); experiment: as above; conditions: both partners purified
Chain of calpain 1 (P07384 2-714, chain 1 of 2): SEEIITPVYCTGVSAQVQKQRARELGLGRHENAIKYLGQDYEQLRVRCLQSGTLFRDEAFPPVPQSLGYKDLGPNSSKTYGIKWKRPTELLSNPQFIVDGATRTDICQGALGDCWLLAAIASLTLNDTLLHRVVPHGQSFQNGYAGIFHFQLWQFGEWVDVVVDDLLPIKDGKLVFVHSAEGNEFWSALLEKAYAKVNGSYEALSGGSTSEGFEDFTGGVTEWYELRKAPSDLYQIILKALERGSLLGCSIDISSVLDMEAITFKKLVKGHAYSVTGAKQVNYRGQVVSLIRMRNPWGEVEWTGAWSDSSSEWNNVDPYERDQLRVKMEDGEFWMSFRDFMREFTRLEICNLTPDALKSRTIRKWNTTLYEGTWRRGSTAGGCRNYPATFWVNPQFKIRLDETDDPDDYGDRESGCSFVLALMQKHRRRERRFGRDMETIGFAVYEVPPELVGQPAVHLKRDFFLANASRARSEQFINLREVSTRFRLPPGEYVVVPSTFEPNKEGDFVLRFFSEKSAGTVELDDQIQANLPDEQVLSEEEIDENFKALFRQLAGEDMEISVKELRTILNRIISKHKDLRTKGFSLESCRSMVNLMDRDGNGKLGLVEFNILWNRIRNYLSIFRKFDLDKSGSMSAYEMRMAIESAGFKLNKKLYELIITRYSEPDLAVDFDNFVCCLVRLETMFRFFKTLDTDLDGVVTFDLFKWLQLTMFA
Chain of calpain 1 (P04632 whole entry, chain 2 of 2, further chain): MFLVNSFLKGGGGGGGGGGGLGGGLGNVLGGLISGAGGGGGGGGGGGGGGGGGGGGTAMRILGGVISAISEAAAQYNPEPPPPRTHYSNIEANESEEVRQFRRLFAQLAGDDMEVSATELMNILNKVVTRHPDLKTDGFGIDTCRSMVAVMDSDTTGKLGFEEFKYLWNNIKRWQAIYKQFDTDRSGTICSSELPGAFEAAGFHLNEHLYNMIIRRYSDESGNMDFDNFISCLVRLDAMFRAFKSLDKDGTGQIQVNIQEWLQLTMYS

B1: calpastatin (natural protein)
chain: MNPTETKAIPVSQQMEGPHLPNKKKHKKQAVKTEPEKKSQSTKLSVVHEKKSQEGKPKEHTEPKSLPKQASDTGSNDAHNKKAVSRSAEQQPSEKSTEPKTKPQDMISAGGESVAGITAISGKPGDKKKEKKSLTPAVPVESKPDKPSGKSGMDAALDDLIDTLGGPEETEEENTTYTGPEVSDPMSSTYIEELGKREVTIPPKYRELLAKKEGITGPPADSSKPIGPDDAIDALSSDFTCGSPTAAGKKTEKEESTEVLKAQSAGTVRSAAPPQEKKRKVEKDTMSDQALEALSASLGTRQAEPELDLRSIKEVDEAKAKEEKLEKCGEDDETIPSEYRLKPATDKDGKPLLPEPEEKPKPRSESELIDELSEDFDRSECKEKPSKPTEKTEESKAAAPAPVSEAVCRTSMCSIQSAPPEPATLKGTVPDDAVEALADSLGKKEADPEDGKPVMDKVKEKAKEEDREKLGEKEETIPPDYRLEEVKDKDGKPLLPKESKEQLPPMSEDFLLDALSEDFSGPQNASSLKFEDAKLAAAISEVVSQTPASTTQAGAPPRDTSQSDKDLDDALDKLSDSLGQRQPDPDENKPMEDKVKEKAKAEHRDKLGERDDTIPPEYRHLLDDNGQDKPVKPPTKKSEDSKKPADDQDPIDALSGDLDSCPSTTETSQNTAKDKCKKAASSSKAPKNGGKAKDSAKTTEETSKPKDD
modifications: Paper names only 'calpastatin (endogenous calpain inhibitor)'. Supplier, species, isoform and limits are not stated. Full-length human canonical form is assumed; a commercial single inhibitory domain
B1 was tested, and the Ki (calpain 2) was 1.55 nM and the Ki (calpain 1) was 5.55 nM.
